Assay results taken from PMC12102759.

B1: SH3BP2 peptide 410-425 (SH3 domain-binding protein 2), 16-mer library wild type / TNKS ANK (TNKS 12 ANK repeats, residues 174-649) (parent)
chain 1: LPHLQRSPPDGQSFRS
chain 2: TGVPAVSGALRELLEACRNGDVSRVKRLVDAANVNAKDMAGRKSSPLHFAAGFGRKDVVEHLLQMGANVHARDDGGLIPLHNACSFGHAEVVSLLLCQGADPNARDNWNYTPLHEAAIKGKIDVCIVLLQHGADPNIRNTDGKSALDLADPSAKAVLTGEYKKDELLEAARSGNEEKLMALLTPLNVNCHASDGRKSTPLHLAAGYNRVRIVQLLLQHGADVHAKDKGGLVPLHNACSYGHYEVTELLLKHGACVNAMDLWQFTPLHEAASKNRVEVCSLLLSHGADPTLVNCHGKSAVDMAPTPELRERLTYEFKGHSLLQAAREADLAKVKKTLALEIINFKQPQSHETALHCAVASLHPKRKQVTELLLRKGANVNEKNKDFMTPLHVAAERAHNDVMEVLHKHGAKMNALDTLGQTALHRAALAGHLQTCRLLLSYGSDPSIISLQGFTAAQMGNEAVQQILSESTPIRTSD
B2: TPTE2 peptide 94-109 (Phosphatidylinositol 3,4,5-trisphosphate 3-phosphatase TPTE2), 16-mer library wild type / TLN1 PTB (TLN1 Phosphotyrosine-binding (PTB) domain, residues 309-401) (parent)
chain 1: DLIFTDSKLYIPLEYR
chain 2: GVSFFLVKEKMKGKNKLVPRLLGITKECVMRVDEKTKEVIQEWNLTNIKRWAASPKSFTLDFGDYQDGYYSVQTTEGEQIAQLIAGYIDIILK

Variants of: B1
Experiment: proteomic peptide phage display deep mutational scan (ProP-PD DMS): M13 P8 16-mer library selected against immobilised GST-tagged bait for four days (rounds), NGS of the eluted pools per day and pseudo-replica
Settings: with TNKS ANK (TNKS 12 ANK repeats, residues 174-649); bait immobilised on MaxiSorp plates (10 µg), library pre-cleared on GST, 2 h binding at 4 °C, five washes; one round per day, days 1-4; value from days 2 and 3; keep out of graded; scale: average fractional NGS count over selection days 2 and 3

Screen value, by site and new letter:
chain 1 P9: M 0.000123; I 4.06e-05; V 0; L 0
chain 1 L4: K 3.15e-05; R 2.25e-05
chain 1 H3: S 9.56e-05; K 5.51e-05; D 4.19e-05; R 3.96e-05
chain 1 Q12: D 6.89e-05; R 6.14e-05
chain 1 R6: E 0; A 0; K 0; T 0; V 4.06e-05; Q 0
chain 1 G11: D 0.000101; L 0; R 2.25e-05; E 0; A 0
chain 1 S13: R 3.04e-05; K 0; W 0.000125
chain 1 P2: K 3.03e-05; W 0; Y 4.27e-05
chain 1 D10: M 3.11e-05; N 0; S 7.49e-05; F 0; H 0; R 4.95e-05; W 7.2e-05
chain 1 Q5: I 7.42e-05; R 6.18e-05
chain 1 R15: Y 0.000124
chain 1 F14: R 2.25e-05
chain 1 S7: R 8.27e-05; G 0; A 8.68e-05; W 1.87e-05
chain 1 P8: F 0.000116; W 7.62e-05; G 8.51e-05

Variants of: B2
Experiment: as above
Settings: with TLN1 PTB (TLN1 Phosphotyrosine-binding (PTB) domain, residues 309-401); bait immobilised on MaxiSorp plates (10 µg), library pre-cleared on GST, 2 h binding at 4 °C, five washes; one round per day, days 1-4; value from days 2 and 3; keep out of graded; scale: average fractional NGS count over selection days 2 and 3

Screen value of substitutions, site by site:
chain 1 I3: W 0.000147; E 0.00388; T 0.00253; F 0.0002; L 0.00133; K 0.00351; Y 0.000244; A 2.4e-05; G 0.000109; S 0.000211; V 0.00384; Q 0.00339; D 0.0027; N 0.00121; R 0.00161; M 0.000353; H 4.16e-05
chain 1 I11: V 0.0012; H 0.000432; R 0.000323; F 6.22e-05; N 7.83e-05; K 3.45e-05; E 0.000129; T 0.000474; D 2.74e-05; Y 5.14e-05; L 0.00308; M 3.76e-05; S 7.21e-05; Q 7.15e-05
chain 1 T5: V 0.00155; I 0.000118; L 0; Y 8.75e-05; N 0.000128; R 0; S 4.81e-05; F 0.000105; D 0; K 0; H 5.61e-05; E 0.000584; W 4.49e-05; Q 0.00106
chain 1 L13: K 0.00129; Y 0; R 0.000367; P 0.000483; S 0.0004; Q 0.000253; V 4.1e-05; T 0.000339; N 6.62e-05; I 0.00223; M 0.00103; H 2.74e-05; D 3.05e-05; G 0.000105; E 5.82e-05; A 0.0028
chain 1 Y15: W 0.00208; R 4.1e-05; P 0.00117; N 0.000999; K 0.000539; L 0.00052; F 0.000157; V 0.000703; T 0.0011; A 0.00819; Q 0.00142; H 0.000355; G 0.000939; I 0.00364; D 0.00294; E 0.00244; M 0.00159; S 0.00054
chain 1 K8: N 0.000705; P 0.0034; T 9.24e-05; I 0; V 0; L 0.000141; H 0.00014; A 0.0039; Y 9.03e-05; M 0.000286; R 0.00105; S 0.00137; Q 0.00121; G 0.000416; E 0.000109; D 0.00103
chain 1 Y10: F 6.96e-05; W 0.00022; R 0
chain 1 S7: T 6.44e-05; D 0; A 0; N 0.000778
chain 1 P12: A 0; E 0; W 0
chain 1 F4: W 0.00189; T 0
chain 1 E14: W 2.8e-05; S 6.5e-05; T 0.000246; Q 0.000195; V 3.45e-05; P 0.00048
chain 1 L9: R 0; M 4.46e-05; T 2.4e-05; N 0; G 0.000626; D 0; V 0.000711; I 0.000157; A 0.00044
chain 1 L2: Y 0.000116; D 9.22e-05; T 0.000185; F 5.85e-05; W 4.75e-05; I 0.000173; S 3.05e-05; P 0.000184; E 0.000516; M 0.00204; H 0.000178; G 0.000486; Q 0; N 2.74e-05; A 0.000378; V 0.00592
